For 5 molecules, percentage of APC+ stained cells and ELISA absorbance results are on record in patent US20160145343A1.

Assay [1] addresses Normal MUC1 on non-transformed MCF-10A cells and on normal tissue (human) (UniProt P15941). Kind of assay: flow cytometry, MCF10a cells. Background: In flow cytometry, cells or beads pass a laser one at a time.
A further assay addresses BSA (UniProt P02769). As to the kind of experiment: ELISA on coated BSA, antibody 0.01 mg/ml, mean of 3. For orientation: An ELISA detects its analyte on a solid surface through an enzyme-linked reagent.
The target of assay [2] is SEQ ID NO: 346 glycopeptide with TF-antigen at Thr16. Kind of assay: ELISA on coated glycopeptide, antibody 0.01 mg/ml, mean of 3.
The target in assay [3] is SEQ ID NO: 346 glycopeptide with Tn-antigen at Thr4, Thr9 and Thr16. The assay is described as above.

Chain of BSA (P02769 25-607 limits assumed): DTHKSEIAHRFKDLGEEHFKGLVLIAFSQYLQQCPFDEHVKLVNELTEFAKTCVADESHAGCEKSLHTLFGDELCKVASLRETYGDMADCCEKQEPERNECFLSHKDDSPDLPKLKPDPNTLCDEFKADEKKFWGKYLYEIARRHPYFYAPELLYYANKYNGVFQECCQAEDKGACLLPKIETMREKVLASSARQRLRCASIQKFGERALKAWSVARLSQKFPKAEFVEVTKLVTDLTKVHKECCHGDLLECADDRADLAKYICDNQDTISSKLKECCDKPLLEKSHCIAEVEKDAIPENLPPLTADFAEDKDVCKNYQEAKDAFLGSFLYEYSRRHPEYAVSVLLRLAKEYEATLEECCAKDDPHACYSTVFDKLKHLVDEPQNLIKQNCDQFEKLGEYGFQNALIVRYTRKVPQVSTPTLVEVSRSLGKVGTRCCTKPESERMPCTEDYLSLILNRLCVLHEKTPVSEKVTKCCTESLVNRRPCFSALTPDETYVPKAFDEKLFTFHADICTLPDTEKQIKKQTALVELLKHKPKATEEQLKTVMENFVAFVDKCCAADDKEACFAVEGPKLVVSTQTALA

B1: M7 (antibody, human IgG1, kappa, V domains shown)
VH: EVQLVESGGGLVQPGGSLRLSCAASGFTVSSNYMSWVRQAPGKGLEWVSVIYSGGSTYYADSVKGRFTISRDNSKNTLYLQMNSLRAEDTAVYYCARGSTNTYYYDSSGHPWGQGTMVTVSS
VL: DIVMTQSPLSLPATPGEPASISCRSSQSLLHSNGYTYLDWYLQKPGQSPQVLIYLASNRASGVPDRFSGSGSGTNFTLKISRVEAEDVGLFYCMQALQTPQTFGQGTKLEIKR
In assay [1], B1 gave a percentage of APC+ stained cells of 0.95%. The ELISA absorbance at 450 nm in the assay with BSA came to 0.1 absorbance.

B2: M20 (antibody, human IgG1, kappa, V domains shown)
VH: EVQLVESGGGLVQPGGSLRLSCAASGFTFSSYWMHWVRQAPGKGLVWVSHINSDGSSTSYADSVKGRFTISRDNAKNTLYLQMNSLRAEDTAVYYCARELADWGQGTLVTVSS
VL: DVVMTQSPLSLPVTLGQPASISCRSSQSLVYSDGNTYLNWFQQRPGQSPRRLIYQVSNRDSGVPDRFSGSGSGTDFTLKIGRVEAEDVGVYFCMQGTHWPWTFGQGTKVEIKR
With B2, the percentage of APC+ stained cells in assay [1] was 4.45%. The ELISA absorbance at 450 nm (with BSA; in assay [2]; in assay [3]) was 0.1 absorbance throughout.

B3: M22 (antibody, human IgG1, kappa, V domains shown)
VH: EVQLVESGGGLVQPGGSLRLSCAASGFTVSSNYMSWVRQAPGKGLEWVSVIYSGGTTYYADSVKGRFTISRHNSKNTLYLQMNSLRAEDTAVYYCARDHDPDYGGYYMDVWGKGTTVTVSS
VL: DVVMTQSPLSLPVTLGQPASISCRSSQSLVYSDGNTYLNWFQQRPGQSPRRLIYQVSNRDSGVPDRFSGSGSGTDFTLKIGRVEAEDVGVYFCMQGTHWPWTFGQGTKVEIKR
Consider B3, for which the percentage of APC+ stained cells in assay [1] was 2.17%. Further, the ELISA absorbance at 450 nm (with BSA; in assay [2]; in assay [3]) was 0.1 absorbance in each case.

B4: M21 (antibody, human IgG1, kappa, V domains shown)
VH: EVQLVESGGGLVQPGGSLRLSCAASGFTVSSNYMSWVRQAPGKGLEWVSVIYSGGSTYYADSVKGRFTISRDNSKNTLYLQMNSLRAEDTAVYYCARDQEHYFDGSGYYVDYWGQGTLVTVSS
VL: DVVMTQSPLSLPVTLGQPASISCRSSQSLVYSDGNTYLNWFQQRPGQSPRRLIYQVSNRDSGVPDRFSGSGSGTDFTLKIGRVEAEDVGVYFCMQGTHWPWTFGQGTKVEIKR
The molecule B4 gave a percentage of APC+ stained cells in assay [1] of 2.67%. Besides, the ELISA absorbance at 450 nm (with BSA; in assay [2]; in assay [3]) was 0.1 absorbance throughout.

B5: M3 (antibody, human IgG1, lambda, V domains shown)
VH: QLQLQESGPGLVKPSETLSLTCTVSGGSISSSSYYWGWIRQPPGKGLEWIGSIYYSGSTHYNPSLKSRVTISVDTSKNQFSLKLRSVTAADTAVYYCARGVVEVRGNHYYYYYMDVWGKGTTVTVSS
VL: QSVLTQPPSVSGAPGQRVTISCTGSSSNIGAGYDVHWYQQLPGTAPKLLIYGNSYRPSGVPDRFSGSKSGTSASLAITGLQAEDEADYYCQSYDSSLSGSGVFGGGTKLTVLG
Regarding B5, the percentage of APC+ stained cells in assay [1] was found to be 3.14%. The molecule further registered an ELISA absorbance at 450 nm with BSA of 0.1 absorbance.
